Data published in US10359406B2, “Diagnosis and treatment of preeclampsia” (A1M Pharma AB, priority 2007, dated 2019).

Tests used:
K562 cells [1] = assay: Scavenging of cell-bound heme from K562 cells (spectrophotometry, visual); assay type: cell-based, human; details: cells preloaded with 10 μM heme 30 min; protein 2 or 10 μM, 2 h
Procedure: FIG. 18. Scavenging of cell heme by α1m. Human erythroleukemic cells (K562) were cultured with either buffer or 10 μM heme for 30 minutes, washed and resuspended in fresh culture medium. A: The cells were then incubated with α1m (2 or 10 μM) for 2 hours, after which time the culture medium was saved. The cells were washed and solubilized by suspending in a buffer containing 1% NP-40. The culture medium and cellsuspension were then analysed spectrophotometrically by reading the absorbance spectra (300-700 nm). B: The various cultures were also analysed visually. Cells were incubated with either buffer or 10 μM heme for 30 min (Step 1), washed and then incubated with buffer, 10 μM α1m or 10 μM AGP for 2 hours (Step 2), washed and solubilized as described above.
To study the mechanisms of the cytoprotective effect of α1m, we performed a series of experiments attempting to analyze the interactions between the protein and cell-bound heme. […] The culture media were saved, cells washed and solubilized, and both media and solubilized cells analyzed by spectrophotometry (FIG. 18A) and visually (FIG. 18B). Heme was seen as a strong brown-coloring of the cells and the typical absorbance spectrum with a non-distinct peak around 400 nm. […]

[2] = human blood plasma glycoprotein; read-out: Kd of heme binding; cited from earlier work
haemoglobin = assay: Haemoglobin-α1m complex isolated from placenta tissue (anti-α1m affinity column, SDS-PAGE, Western blotting); assay type: binding, human; details: 43-kDa band reacting with anti-α1m and anti-Hb-A; lost with mercaptoethanol
Procedure: FIG. 20 show SDS-PAGE and Western blotting of a haemoglobin-α1m complex isolated from placenta tissue. A placenta from a healthy donor was homogenized and centrifuged at 100,000 G for 60 min. The supernatant was applied to an anti-α1m Affigel column which was rinsed and eluted with 0.1 M glycine-HCl, pH 2.3. The eluate was separated by SDS-PAGE which was either stained with Coommassie (two left lanes) or transferred to PVDF membranes and blotted with anti-α1m or anti-Hb-A.
Molecules containing α1m were purified from placenta tissue as described [Berggård et al., 1999]. Approximately 200 g of an apparently normal term human placenta, taken within 3 hours after delivery, were homogenized in 200 ml of 50 mM Tris-HCl, pH 8.0, 0.25 M sucrose, 2 mM EDTA, pepstatin, 1 mg/l, antipain, 5 mg/l, and leupeptin, 10 mg/l, using a Potter-Elvehjem apparatus with a tight-fitting teflon pestle. The homogenate was centrifuged at 10,000 G for 10 min. This pellet was washed by repeatedly suspending 1:1 in the homogenization buffer and recentrifugation at 10,000 G for 10 min. The supernatant was centrifuged at 100,000 G for 90 min. This pellet, containing the placenta membranes and membrane-bound proteins, was dissolved in 40 ml homogenization buffer also containing 0.5% (w/v) Nonidet P-40 (BDH Chemicals) and centrifuged at 20,000 G for 30 min to remove particulate material. […]

collagen = assay: Heme-induced oxidation of collagen/LDL; carbonyl groups measured by ELISA; assay type: biochemical
Procedure: FIG. 17. Reduction of carbonyl groups on oxidized collagen by α1m. Collagen, coated to microtiter plates, was oxidized by incubation with 50 μM heme for 17 h. After washing, 0.1, 0.3 or 1 μM α1m, ovalbumin or ascorbate were added, and incubated for 2 h. Carbonyl groups were measured by ELISA. Each column represents the mean of triplicates+/−SE
(§1) The anti-oxidation properties of α1m are illustrated in FIGS. 16 and 17. […] A possible mechanism for these actions may be the reductase properties of α1m, reducing the oxidants, the oxidation modifications, or both.

K562 cells [3] = assay: Heme- and ROS-induced oxidation of K562 cells (H2DCFDA probe, FACS); assay type: cell-based, human; details: extracellularly added α1m 2, 5 or 10 μM; 10 μM heme, 2 h
Procedure: (§2) FIG. 16. A. Cell-protective properties of α1m against heme- and ROS-induced oxidation. K562 cells were labelled with the oxidation-sensitive probe H2DCFDA, washed, and incubated with α1m (2, 5 or 10 μM), AGP (2, 5 or 10 μM) or ascorbate (10 μM) prior to the addition of 10 μM heme. The cells were incubated for 2 h and analysed with FACS. B. K562 cells were cultured with α1m (2, 5 or 10 μM) or a control protein (α1-acid glycoprotein, AGP) (10 μM) prior to the addition of 200 μM heme and cultured 4 h. The cell suspension was collected, mixed with propidium iodide and analysed with FACS.
as §1

K562 cells [4] = assay: Heme-induced cell lysis/death of K562 cells (propidium iodide, FACS); assay type: cell-based, human; details: extracellularly added α1m 2, 5 or 10 μM; 200 μM heme, 4 h
Procedure: as §2, §1

| Molecule | effect on cell-bound heme (K562 cells [1]) | Kd [2] [pM] | binding of haemoglobin in placenta tissue (haemoglobin) | heme- and ROS-induced oxidation of collagen, LDL, membrane lipids and whole cells (collagen) | removal of pre-formed oxidation products (carbonyl groups) on collagen and LDL (collagen; collagen oxidized with 50 μM heme 17 h, 0.1, 0.3 or 1 μM α1m, 2 h) | oxidation of cell cytosol and cytosol protein thiol groups by heme and ROS (K562 cells [3]) | cell lysis (cell death) induced by heme (K562 cells [4]) |
| --- | --- | --- | --- | --- | --- | --- | --- |
| AGP: control protein (α1-acid glycoprotein), control lipocalin [reference compound] | did not have any effect |  |  |  |  |  |  |
| Hemopexin: glycoprotein (60 kDa) found in human blood plasma which eliminates free heme by binding it strongly |  | ~1 |  |  |  |  |  |
| α1m: Recombinant human α1-microglobulin expressed in E. coli; small plasma and tissue protein, heme-binder and radical scavenger (protein, UniProt P02760 20-203, looked up, Alpha-1-microglobulin) Alpha-1-microglobulin: GPVPTPPDNIQVQENFNISRIYGKWYNLAIGSTCPWLKKIMDRMTVSTLVLGEGATEAEISMTSTRWRKGVCEETSGAYEKTDTDGKFLYHKSKWNITMESYVVHTNYDEYAIFLTKKFSRHHGPTITAKLYGRAPQLRETLLQDFRVVAQGVGIPEDSIFTMADRGECVPGEQEPEPILIPRV | almost completely removed from the cells |  | haemoglobin is bound by α1m | inhibited | removed pre-formed oxidation products | inhibit the oxidation | inhibits the cell lysis |
